Assay: yeast display, Sf9 membrane polyspecificity reagent, FACS + sequencing; frameworks hold sequencing errors
In short: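 Using colony PCR, genes from sorted yeast display clones were amplified, then sequenced on MiSeq at 2 × 250 and filtered by CDR length. The clones had been stained with 10% biotinylated, detergent-solubilized Sf9 membrane reagent for 1 hour at 4 °C and sorted by FACS into low and high (top ~1%) gates on anti-HA and streptavidin fluorescence. Polyreactivity labels come from the gate of origin.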

| Sequence | polyreactivity (PSR sort gate) |
| --- | --- |
| QVQLVESGGGLVQAGGSLRLSCAASGITFRYYAMGWYRQAPGKERELVAAISRSGGRTYYADSVKGRFTISRDNAKNTVYLQMNSLKPEDTAVYYCAVAVRRGRAYDYWGQGTQVTVSS | high polyreactivity |
| QVQLVESGGGLVQAGGSLRLSCAASGITFRYYAMGWYRQAPGKERELVAAITRSGSTTYADSVKGRFTISRDNAKNTVYLQMNSLKPEDTAVYYCAVDYYYLTGGVDYWGQGTQVTVSS | low polyreactivity |
| QVQLVESGGGLVQAGGSLRLSCAASGITFRYYAMGWYRQAPGKERELVAVISTSGGSTYYADSVKGRFTISRDNAKNTVYLQMNSLKPEDTAVYYCAARYTYWGLLRYDYWGQGTQVTVSS | high polyreactivity |
| QVQLVESGGGLVQAGGSLRLSCAASGITFRYYAMGWYRQAPGKERELVAVISTSGGSTYYADSVKGRFTISRDNAKNTVYLQMNSLKPEDTAVYYCAVVWPYSERYYYWGQGTQVTVSS | high polyreactivity |
| QVQLVESGGGLVQAGGSLRLSCAASGITFRYYAMGWYRQAPGKERELVAVITYSGSRTYYADSVKGRFTISRDNAKNTVYLQMNSLKPEDTAVYYGATKGAKRVIGETAYDYWGQGTQVTVSS | high polyreactivity |
| QVQLVESGGGLVQAGGSLRLSCAASGITFRYYTMGWYRQAPGKERELVAAITWSGSSTYYADSVKGRFTISRDNAKNTVYLQMNSLKPEDTAVYYCNAVPYDYLADYWGQGTQVTVST | low polyreactivity |
| QVQLVESGGGLVQAGGSLRLSCAASGITFSFYAMGWYRPAPGKERELVAAINGRGGRTYYADSVKGRFTISRDNAKNTVYLQMNSLKPEDTAVYYCAAVVWRTDYDYWGQGTQVTVSS | low polyreactivity |
| QVQLVESGGGLVQAGGSLRLSCAASGITFSFYAMGWYRQAPGKERELVAGLTRSGGDTYYADSVKGRFTISRDNAKNTVYLQMNSLKPEDTAVYYCAAAWFFYRRQYTFFAGRMDYWGQGTQVTVSS | high polyreactivity |
| QVQLVESGGGLVQAGGSLRLSCAASGITFSGNAMGWYRQAPGKERELVAAISGGGSTNYADSVKGRFTISRDNAKNTVYLQMNSLKPEDTAVYYCAAEIIFWYLYRDYYYWGQGTQVTVSS | low polyreactivity |
| QVQLVESGGGLVQAGGSLRLSCAASGITFSNYAIGWYRQAPGKERELVAAISKRGGSTYYADSVKGRFTISRDNAKNTVYLQMNSLKPEDTAVYYCAAAGVRVYVRSGLDYWGQGTQVTVSS | high polyreactivity |
| QVQLVESGGGLVQAGGSLRLSCAASGITFSPSAMGWCRQAPGKERELVAAITSGGSTNYADSVKGRFTISRDNAKNTVYLQMNSLKPEDTAVYYCAAGRWPAPWYTRNYWGQGTQVTVSS | low polyreactivity |
| QVQLVESGGGLVQAGGSLRLSCAASGITFSPYAMGWYRQAPGKERELVAAISSRGGSTYYADSVKGRFTISRDNAKNTVYLQMNSLKPEDTAVYYCNALTFVRYLFHYTYWGQGTQVTVSS | high polyreactivity |
| QVQLVESGGGLVQAGGSLRLSCAASGITFSSYAMGWYRQAPGKERELVAGITRRGGITYYADSVKGRFTISRDNAKNTVYLQMNSLKPEDTAVYYCAATHRFRTGSPDGGYGYWGQGTQVTVSS | high polyreactivity |
| QVQLVESGGGLVQAGGSLRLSCAASGITFSSYTMGGYRQAPGKERELVARINSGGTTNYADSVKGRFTISRDNAKNTVYLQMNSLKPEDTAVFYCAAEWVSWRWAHKFDYWGQGTQVTVSS | high polyreactivity |
| QVQLVESGGGLVQAGGSLRLSCAASGITFSVYAMGWYRQAPGKEWELVASISSGGTSTYYADSVKGRFTISRDNAKNTVYLQMNSLKPEDTAVYYCAAYSYYTGDQYSYDYWGQGTQVTVSS | low polyreactivity |
| QVQLVESGGGLVQAGGSLRLSCAASGITFSYNDMGWYRPAPGKEREFVATIRGSTARTYNADSVKGRFTISRDNAKNTVYLQMNSLKPEDTAVYYGAAGKYWYGYDYWGQGTQVTVSS | high polyreactivity |
| QVQLVESGGGLVQAGGSLRLSCAASGITFSYYAMGWYRQAPGKERELVAAINSGGGSTYYADSVKGRFTISRDNAKNTVYLQMNSLKPEDTAVYYCAARYRSRYDYYYDRDYWGQGTQVTVSS | low polyreactivity |
| QVQLVESGGGLVQAGGSLRLSCAASGITFSYYAMGWYRQAPGKERELVAVISRRGGTTYYADSVKGRFTISRDNAKNTVYLQMNSLKPEDTAVYYCAATYISVLGYEYWGQGTQVTVSS | high polyreactivity |
| QVQLVESGGGLVQAGGSLRLSCAASGITFTFNAKGWYRQAPGKERELVAAISSTTSTIYADSVKRRFTISRDNAKNTVYLQMNRLKPEDTAVYYCAAVEFELLGDYWRQGTQVTVSS | low polyreactivity |
| QVQLVESGGGLVQAGGSLRLSCAASGITFTFNAMGWYRQAPGKDRELVAAMTWSGGSTFYADSVKGRFTISRDNAKNTVYLQMNSLKPEDSAVYYCARDTELYVRWLDYWGQGTQVTVSS | low polyreactivity |
| QVQLVESGGGLVQAGGSLRLSCAASGITFTGYAMVWYRQAPGKERELVAAIRGGGNTYYADSVKGRFTISRDNAKNTVYLQMNSLKPEDTAVYYCAADDIAHQYFVSTVDVGMDYWGQGTQVTVSS | low polyreactivity |
| QVQLVESGGGLVQAGGSLRLSCAASGITFTQYTMGWYRQARGKQRELVAAISSSGGRTYYADSVKGRYTISRDNAKKTVYLQMNSLKPEDTAVYYCAAAWRRTFDYCGQGTQVTVSS | high polyreactivity |
| QVQLVESGGGLVQAGGSLRLSCAASGITFTRNAMGWYRQAPGKERELVATISGSGGGTYYADSVKGRFTISRDNAKNTVYLQMNSLKPEDTAVYYCNARRWYYWQGTARYDYWGQGTQVTVSS | low polyreactivity |
| QVQLVESGGGLVQAGGSLRLSCAASGITFTSYAMGWYRQAPGKERELVAAISSSGGSTYYADSVKGRFTISRDNAKNTVYLQMNSLKPEDPAVYYCNARPRSRSPRVEYDYWGQGTQVTVSS | high polyreactivity |
| QVQLVESGGGLVQAGGSLRLSCAASGITFVHYAMGWYRQAPGKERELVAAISSGGGSTYYADSVKGRFTISRDNAKNTVYLQMNSLKPGVTAVYYCAAYVLPYGEYDYWGQGTQVTVSS | low polyreactivity |
| QVQLVESGGGLVQAGGSLRLSCAASGITFVLNALGWYRQAPRKERELVARISWSTGSTYYADSVKGRFTISRDNAKNTVYLQMNSLKPEDTAVYYCAVDYNVQSLYVVVEGEYWGQGTQVTVSS | low polyreactivity |
| QVQLVESGGGLVQAGGSLRLSCAASGITFVLYAMGWYRQAPGKERELVAAITWRGGSTYYADSVKGRFTISRDNAKNTVYLQMNSLKPEDTAVYYCAAVQFTSYRQGDYWGQGTQVTVSS | low polyreactivity |
| QVQLVESGGGLVQAGGSLRLSCAASGITFVNYAMGWYIQAPGKERELVAAISQSGAITFYADSVKGRFTISRDYAKNNVYLQMNSLKPEDTEVYYCAARRRRGDRSAYDYWGQGTQVTVSS | high polyreactivity |
| QVQLVESGGGLVQAGGSLRLSCAASGITFVPNAMGWYRQAPGKERELVARIDNGVSTNYADSVKGRFTISRDNAKNTVYLQMNSLKPEDTAVYYCAKDGYWGDWDQYYWGQGTQVTVSS | low polyreactivity |
| QVQLVESGGGLVQAGGSLRLSCAASGITFVPYAMGWYRQAPGKERELVAAISSSGGSTYYADSVKGRFTISRDNAKNTVYLQMNSLKPEDTAVYYCNVRTHSYIGMDYWGQGTQVTVSS | low polyreactivity |

From the nanobody polyreactivity screen of Harvey et al. (2022)
